This note sets out measurements from PMC4045772 (PLoS ONE, 2014).

The target in the assay is biotinylated Cul3/Rbx1 (UniProt Q13618 1-768; P62877 1-108, biotin (BirA biotinylation of the Avi tag)). Kind of assay: AlphaScreen or HTRF; 30 nM His-tagged Keap1 (35-235) incubated with CDDO or DMSO 2.5 h at 37°C, then 30 nM biotinylated Cul3/Rbx1 1.5 h at room temperature; nickel chelate donor beads and streptavidin acceptor beads. The note with it: both partners purified.
biotinylated Cul3/Rbx1, sequence (Q13618 whole entry, chain 1 of 2): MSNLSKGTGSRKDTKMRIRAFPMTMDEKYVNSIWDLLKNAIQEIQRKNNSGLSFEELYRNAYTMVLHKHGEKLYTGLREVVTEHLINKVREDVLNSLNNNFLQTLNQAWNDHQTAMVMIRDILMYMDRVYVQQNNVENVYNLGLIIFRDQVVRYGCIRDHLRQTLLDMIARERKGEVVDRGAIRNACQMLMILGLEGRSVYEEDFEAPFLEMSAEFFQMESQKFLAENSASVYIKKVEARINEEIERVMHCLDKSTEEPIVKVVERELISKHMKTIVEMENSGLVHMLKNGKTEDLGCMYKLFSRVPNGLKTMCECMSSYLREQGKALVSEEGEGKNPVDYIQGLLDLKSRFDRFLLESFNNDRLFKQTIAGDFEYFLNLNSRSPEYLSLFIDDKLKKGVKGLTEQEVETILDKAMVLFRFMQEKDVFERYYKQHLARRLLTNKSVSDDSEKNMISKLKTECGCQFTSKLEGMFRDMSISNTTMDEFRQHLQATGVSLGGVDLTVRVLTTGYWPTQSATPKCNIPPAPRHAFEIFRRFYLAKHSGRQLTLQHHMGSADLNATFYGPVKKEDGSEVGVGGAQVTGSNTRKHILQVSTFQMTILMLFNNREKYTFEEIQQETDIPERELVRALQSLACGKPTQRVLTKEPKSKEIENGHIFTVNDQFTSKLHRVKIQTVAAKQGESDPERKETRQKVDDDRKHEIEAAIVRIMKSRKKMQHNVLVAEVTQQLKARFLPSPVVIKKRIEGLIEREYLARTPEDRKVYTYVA
biotinylated Cul3/Rbx1, sequence (P62877 whole entry, chain 2 of 2): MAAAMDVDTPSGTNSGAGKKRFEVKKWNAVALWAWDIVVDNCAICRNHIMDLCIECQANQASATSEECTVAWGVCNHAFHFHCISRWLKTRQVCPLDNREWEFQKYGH

B1: Keap1 BTB with the first ~50 residues of the BACK domain (residues 35-235), C151S (domain or fragment, human, UniProt Q14145 35-235, looked up)
chain: STECKAEVTPSQHGNRTFSYTLEDHTKQAFGIMNELRLSQQLCDVTLQVKYQDAPAAQFMAHKVVLASSSPVFKAMFTNGLREQGMEVVSIEGIHPKVMERLIEFAYTASISMGEKSVLHVMNGAVMYQIDSVVRACSDFLVQQLDPSNAIGIANFAEQIGCVELHQRAREYIYMHFGEVAKQEEFFNLSHCQLVTLISRD
In the case of B1, the binding result is “binds”.
